The values that follow come from patent EP1287147B1.

Experiment [1] addresses human CD3 (CD3 epsilon of the T-cell receptor complex) on Jurkat cells (human) (UniProt P07766). The experiment is described as follows: competition with 125I-UCHT1 tracer on Jurkat cells; competitor at 1 nM.
Experiment [2] shares this target. Kind of experiment: competition with 125I-UCHT1 tracer on Jurkat cells; competitor at 100 nM.
For experiment [3] the target is unchanged. Kind of experiment: cell-based or functional assay.

Turning to “UCHT1 monoclonal antibody (murine anti-human CD3, IgG1)”, the results for the % of 125I-UCHT1 tracer bound (% of tracer bound without competitor) in experiment [1] and in experiment [2] were 80 and 0, respectively.

“scUCHT1 (divalent chimeric anti-human CD3 single chain antibody, UCHT1 VL-linker-VH fused to human IgM Fc CH2-CH4) (Fc fusion)”: the % of 125I-UCHT1 tracer bound (% of tracer bound without competitor) was 80 in experiment [1] and 0 in experiment [2].

For the substance “sFv-DT390 (DT390-sFv(UCHT1'), anti-CD3 single-chain immunotoxin with truncated diphtheria toxin)”, the ratio of IC50 of sFv-DT390 to IC50 of UCHT1-CRM9 in experiment [3] was found to be 16 fold.
